Test results published in patent US20220195008A1 (published 2022).
Each block holds one binder with its values, some of them ahead of it.

Legend:
[1] = biological target: T1, MAGE-A12 peptide on HLA-C*07:01 (human); experiment: killing
T1 peptide: VRIGHLYIL

[2] = biological target: T1, MAGE-A12 peptide on HLA-C*07:01; experiment: cytokine release
[3] = biological target: T2, MAGE-A12 peptide on HLA-C*07:02 (human); experiment: cytokine release
T2 peptide: VRIGHLYIL

B1: anti-MAGE-A12 TCR 502 (TCR, V domains shown)
Valpha: GENVEQHPSTLSVQEGDSAVIKCTYSDSASNYFPWYKQELGKRPQLIIDIRSNVGEKKDQRIAVTLNKTAKHFSLHITETQPEDSAVYFCAASGATDKLIFGTGTRLQVFP
Vbeta: EADIYQTPRYLVIGTGKKITLECSQTMGHDKMYWYQQDPGMELHLIHYSYGVNSTEKGDLSSESTVSRIRTEHFPLTLESARPSHTSQYLCASSGGHEQYFGPGTRLTVT
binding result [1]: recognises

binding result [2]: no recognition | binding result [3]: recognises
B2: anti-MAGE-A12 TCR FM8 (TCR, V domains shown)
Valpha: AQTVTQSQPEMSVQEAETVTLSCTYDTSESDYYLFWYKQPPSRQMILVIRQEAYKQQNATENRFSVNFQKAAKSFSLKISDSQLGDAAMYFCAYRSAQGGSEKLVFGKGTKLTVNP
Vbeta: ETGVTQTPRHLVMGMTNKKSLKCEQHLGHNAMYWYKQSAKKPLELMFVYSLEERVENNSVPSRFSPECPNSSHLFLHLHTLQPEDSALYLCASSQTTYYNEQFFGPGTRLTVL
